The target in this experiment is T1, human organic cation transporter 1 (hOCT1) (Homo sapiens, UniProt O15245).
T1 construct: human organic cation transporter 1 (SLC22A1), full-length, wild-type construct used for cryo-EM structure determination; A 3C protease cleavage site stands between hOCT1 and GFPuv-His6; The FSEC-TS assay used hOCT1-GFP; also called SLC22A1; hOCT1-GFP; source: Sf9 insect cells (baculovirus), purified (Ni-NTA, protein C column, SEC) in DDM or LMNG micelles
Put plainly: SEC; Nb56 with hOCT1; co-migration on size exclusion chromatography. Particulars: both partners purified.

This is an account of results in PMC10940649, “Structural insights into human organic cation transporter 1 transport and inhibition” (Cell Discovery, 2024).

T1 sequence (O15245 whole entry): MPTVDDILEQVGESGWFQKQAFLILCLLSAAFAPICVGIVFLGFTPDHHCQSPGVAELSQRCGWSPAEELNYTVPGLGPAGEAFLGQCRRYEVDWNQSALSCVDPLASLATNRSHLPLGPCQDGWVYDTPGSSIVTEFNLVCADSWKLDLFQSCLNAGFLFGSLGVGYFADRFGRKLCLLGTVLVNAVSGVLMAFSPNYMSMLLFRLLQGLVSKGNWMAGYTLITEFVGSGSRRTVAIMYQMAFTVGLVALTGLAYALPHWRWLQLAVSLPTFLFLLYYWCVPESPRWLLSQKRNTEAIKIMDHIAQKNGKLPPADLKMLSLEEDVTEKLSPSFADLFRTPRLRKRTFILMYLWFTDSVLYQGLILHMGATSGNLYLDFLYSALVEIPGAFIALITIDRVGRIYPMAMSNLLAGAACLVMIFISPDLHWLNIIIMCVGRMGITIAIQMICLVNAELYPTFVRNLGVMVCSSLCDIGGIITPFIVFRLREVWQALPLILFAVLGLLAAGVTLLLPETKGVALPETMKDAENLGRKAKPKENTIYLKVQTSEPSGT

B1: Nb56 (VHH)
VHH: QVQLQESGGGLVQAGGSLRLSCAASGTIFYYEIMGWYRQAPGKEREFVATIDQGGITNYADSVKGRFTISRDNAKNTVYLQMNSLKPEDTAVYYCAVPDVFVGRGWDYLIYWGQGTQVTVSS
notes: Nanobody selected from a synthetic yeast display library with hOCT1 in LMNG as bait; Nb56 was modelled in the deposited hOCT1-Nb5660 structures (hOCT1-apo1, -apo2, -apo3); source: E. coli BL21 (DE3), pET26b, purified (Ni-NTA, SEC)
In the case of B1, the binding result is recorded as “binds”.
